According to article PMC10718521, “Complexity of αvβ6-integrin targeting RGD peptide trimers: emergence of non-specific binding by synergistic interaction” (RSC Medicinal Chemistry, 2023):

Test system: H2009 bearing SCID mice
Settings: mouse, in vivo
Protocol: Fig. 3 Positron emission tomography (PET) of severe combined immunodeficient (SCID) mice bearing subcutaneous H2009 (human lung adenocarcinoma) xenografts on the right shoulder. Dynamic scans for determination of biokinetics (a and b) were recorded in list mode and reconstructed in multiple frames with increasing time spans. Static images (c and d) were recorded over 20 min, 75 min after tracer administration, and reconstructed as single frames using the OSEM3D algorithm. […]
Unless otherwise noted, the materials and the instrumentation used (analytical and preparative HPLC, ESI-MS, gamma counter, centrifuge), and the experimental procedures (^68Ga radiolabeling and radio-TLC for quality control, determination of log D7.4, cultivation of H2009 human lung adenocarcinoma cells, generation of tumor xenografts in CB17 SCID mice, small-animal PET, and biodistribution) were described before.[19] […] The affinities of the pentynoic amide functionalized peptides were determined employing a well-established ELISA protocol on immobilized integrins.[36] […]

Q: `CC(C)C[C@@H]1NC(=O)[C@H](CC(=O)O)NC(=O)CNC(=O)[C@H](CCCNC(=N)N)NC(=O)[C@H](Cc2ccc(O)cc2)NC(=O)[C@H](CCCCNC(=O)CCc2cn(CCCNC(=O)CCP(=O)(O)CN3CCN(CP(=O)(O)CCC(=O)NCCCn4cc(CCC(=O)NCCCC[C@H]5C(=O)N[C@@H](Cc6ccc(O)cc6)C(=O)N[C@@H](CCCNC(=N)N)C(=O)NCC(=O)N[C@@H](CC(=O)O)C(=O)N[C@@H](CC(C)C)C(=O)N[C@@H](C)C(=O)N[C@@H](Cc6ccc(O)cc6)C(=O)N6CCC[C@@H]6C(=O)N5C)nn4)CCN(CP(=O)(O)CCC(=O)NCCCn4cc(CCC(=O)NCCCC[C@H]5C(=O)N[C@@H](Cc6ccc(O)cc6)C(=O)N[C@@H](CCCNC(=N)N)C(=O)NCC(=O)N[C@@H](CC(=O)O)C(=O)N[C@@H](CC(C)C)C(=O)N[C@@H](C)C(=O)N[C@@H](Cc6ccc(O)cc6)C(=O)N6CCC[C@@H]6C(=O)N5C)nn4)CC3)nn2)N(C)C(=O)[C@H]2CCCN2C(=O)[C@H](Cc2ccc(O)cc2)NC(=O)[C@H](C)NC1=O` [Y6] was tested. Which “Kinetic data Blood” value did it give?
A: 13.14 ± 1.99
